Laboratory results from the supplement of paper PMC10567573.

B1: FAM116A (parent)
chain: TVHEVDIFRCFCPVFLHSQMLWEL
B2: MYBL2 (parent)
chain: FPNRTDQQCQYRWLRVLNPDLVKG

Variants of: B1
Test: protein stability index of a GFP-peptide fusion (GPS, HEK-293T) (PSI 1-6); higher = more stable
Conditions: c terminus: a fixed tail appended
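Also: lentivirally expressed fusions sorted by FACS into six bins by GFP to DsRed ratio, PSI derived from sequencing read proportions per bin multiplied by bin number.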

Protein stability index of substitutions, site by site:
V2: E 1.04; K 1.73; M 2.05; N 1.76; Q 2.08; R 3.97; W 2.7; Y 3.92
H3: D 2.26; E 1.82; F 2.37; G 3.96; K 2.14; L 2.85; N 3.08; P 3.24; T 1.85; W 3.13; Y 3.37
E4: C 1.53; D 1.46; H 3.03; I 3.19; K 3.86; P 3.77; Q 1.79; R 3.14; S 4.26; T 3.43; Y 3.35
V5: K 1.93; N 1.84; R 4.06; S 2.17; T 3.3; W 2.47; Y 2.28
D6: A 4.47; H 2.23; I 2.2; K 2.61; N 3.02; P 1.7; Q 2.07; W 3.69; Y 2.19
I7: C 2.28; G 3.26; M 1.22; N 1.09; R 1.94; T 2.49; Y 3.48
F8: A 2.53; C 2.96; G 1.07; H 1; K 2.31; L 3.07; M 3.18; N 2.05; P 2.36; R 1.45; V 2.4; W 3.88; Y 2.89
R9: A 2.82; D 2.96; E 4.78; F 2.13; H 2.19; P 1.77; Q 3.69; S 3.12; T 1.99
C10: H 4.15; K 2.63; M 3.4; P 4.46; R 2; S 2.89; T 1.93; V 2.69
F11: C 2.65; G 2.22; H 2.82; K 2.82; N 2.04; Q 1.64; R 1.38
C12: E 1.52; F 2.77; I 2.54; K 1.79; M 2.97; R 3.5
P13: A 2.36; I 3.13; K 2.83; L 1; N 1.5; Y 1.72
V14: A 2.13; F 2.97; G 3.26; K 2.41; L 4.01; Q 3.31; R 2.5; Y 1.89
F15: C 1.76; D 1.44; H 2.83; I 3.86; K 2.7; R 4.41; V 1.94; Y 3.31
L16: C 3.78; E 1.69; G 2.97; N 3.13; P 2.89; R 3.17
H17: M 3.23; P 2.86; R 2.65; S 3.21
S18: D 2.15; E 1.56; F 2.77; G 2.83; L 2.89; N 2.99; Q 2.17; T 3.1; W 2.85; Y 4.23
Q19: A 3.23; C 2.22; I 1.82; P 4.4; S 2.74; T 1.66; W 2.73
M20: F 2.05; I 3.16; K 1.68; L 3.06; N 3.79; P 1.4; Q 2.97; V 2.62; Y 3.21
L21: C 3.04; I 3.87; Q 3.05; R 1.77; T 3.12
W22: F 2.22; G 3.08; H 1.52; K 1.13; M 3.69; R 3.65; T 2.11
E23: H 3.28; I 3.36; K 3.53; L 3.65; N 3.34; R 1.77; S 2.37; W 2.4; Y 2.38
L24: C 4.01; G 3.33; P 1.69; Q 1.47; S 2.18; W 1.83; Y 3.09

Variants of: B2
Test: as above
Conditions: c terminus: a fixed tail appended

Protein stability index: each site, then its substitutions
F1: A 2.54; C 2.24; D 3.24; E 2.56; G 3.23; H 2.44; I 2.6; K 2.14; L 2.08; M 2.37; N 2.47; P 3; Q 2.76; R 2.79; S 2.51; T 2.75; V 2.31; W 2; Y 1.95
P2: A 2.17; C 1.84; D 2.06; E 2.67; F 1.69; G 1.88; H 1.86; I 1.13; K 2.3; L 2.62; M 1.63; N 2.06; Q 1.93; R 2.49; S 2.3; T 1.81; V 3.52; W 1.61; Y 2.2
N3: A 2.27; C 1.56; D 1.83; E 1.96; F 1.63; G 1.77; H 1.98; I 1.82; K 1.77; L 1.94; M 1.72; P 1.93; Q 2.04; R 2.1; S 1.78; T 1.91; V 1.91; W 1.31; Y 1.87
R4: A 1.99; C 1.51; D 2.27; E 2.51; F 2.22; G 1.74; H 2.47; I 1.56; K 2.11; L 2.65; M 2.2; N 1.94; P 2.64; Q 2.19; S 1.95; T 2.02; V 1.96; W 2.23; Y 1.98
T5: A 2.73; C 1.57; D 1.98; E 2.29; F 1.49; G 1.53; H 1.74; I 2.29; K 2.29; L 1.64; M 2.33; N 2.01; P 2.05; Q 1.76; R 1.73; S 1.86; V 1.8; W 2; Y 1.95
D6: A 1.7; C 1.45; E 1.61; F 2.36; G 1.51; H 1.94; I 2.07; K 2.06; L 1.97; M 1.27; N 1.8; P 1.81; Q 2.91; R 1.41; S 1.89; T 1.84; V 1.98; W 1.75; Y 1.61
Q7: A 2.53; C 1.94; D 2.3; E 2.15; F 1.67; G 2.96; H 2.05; I 2.07; K 1.8; L 1.69; M 1.96; N 2.38; P 2.17; R 2.63; S 1.82; T 1.72; V 1.85; W 2.29; Y 1.61
Q8: A 1.38; C 1.42; D 2.09; E 2.01; F 1.71; G 1.34; H 2.37; I 2.01; K 1.97; L 1.68; M 1.83; N 2; P 2.09; R 1.96; S 1.83; T 1.82; V 2.05; W 1.97; Y 1.88
